Here are results for two molecules from patent US20210079099A1 (VESTLANDETS INNOVASJONSSELSKAP, published 2021).

Common to all, as to experiment: flow cytometry on fixed transfected C2C12 cells
The target in assay [1] is T1, human integrin alpha-2-mCherry expressed on C2C12 cells (human, UniProt P17301 30-1181).
T1 construct: whole, on cells; Transfected C2C12 cells fixed with 2% paraformaldehyde/PBS before staining; not shown: mCherry tag
T1 sequence (looked up): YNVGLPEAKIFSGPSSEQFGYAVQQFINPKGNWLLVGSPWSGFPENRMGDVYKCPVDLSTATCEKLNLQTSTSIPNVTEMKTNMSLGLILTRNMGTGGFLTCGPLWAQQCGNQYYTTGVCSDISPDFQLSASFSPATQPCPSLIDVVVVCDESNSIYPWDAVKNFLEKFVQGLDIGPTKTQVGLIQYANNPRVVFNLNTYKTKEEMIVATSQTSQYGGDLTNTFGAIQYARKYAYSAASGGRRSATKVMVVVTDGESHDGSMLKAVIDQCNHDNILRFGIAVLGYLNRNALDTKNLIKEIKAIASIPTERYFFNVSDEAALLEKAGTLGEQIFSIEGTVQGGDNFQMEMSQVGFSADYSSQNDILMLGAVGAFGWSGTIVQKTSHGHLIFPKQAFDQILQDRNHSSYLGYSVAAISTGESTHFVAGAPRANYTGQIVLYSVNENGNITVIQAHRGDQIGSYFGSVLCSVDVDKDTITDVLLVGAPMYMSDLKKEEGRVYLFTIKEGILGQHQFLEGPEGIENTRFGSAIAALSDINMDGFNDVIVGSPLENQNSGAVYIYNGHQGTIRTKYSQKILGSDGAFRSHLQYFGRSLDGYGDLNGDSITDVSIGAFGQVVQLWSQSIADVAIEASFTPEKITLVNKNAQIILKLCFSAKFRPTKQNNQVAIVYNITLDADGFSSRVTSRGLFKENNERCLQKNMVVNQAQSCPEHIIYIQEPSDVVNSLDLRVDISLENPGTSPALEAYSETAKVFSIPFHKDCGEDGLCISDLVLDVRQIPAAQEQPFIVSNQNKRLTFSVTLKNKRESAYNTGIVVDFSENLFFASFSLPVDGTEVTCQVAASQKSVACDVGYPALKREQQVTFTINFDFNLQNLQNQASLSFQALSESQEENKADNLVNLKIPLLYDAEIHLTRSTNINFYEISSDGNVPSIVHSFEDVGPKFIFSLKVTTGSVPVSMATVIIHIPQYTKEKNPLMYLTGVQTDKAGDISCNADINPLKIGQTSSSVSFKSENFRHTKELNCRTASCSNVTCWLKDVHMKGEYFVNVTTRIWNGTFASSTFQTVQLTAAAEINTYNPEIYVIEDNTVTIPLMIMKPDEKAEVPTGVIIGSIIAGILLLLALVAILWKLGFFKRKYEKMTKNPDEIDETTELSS
As to the method:
(§1) To identify the epitope of the deposited integrin alpha-11 monoclonal antibodies. C2C12 cells were transfected with plasmids containing cDNAs encoding human integrin alpha-2-mCherry, human integrin alpha-11-EGFP, chimeric alpha-11Ialpha2mCherry or chimeric alpha-21-alpha-11EGFP as shown in FIG. 4a. Transfection was conducted as described in the art. 2% paraformaldehyde/PBS fixed transfected C2C12 cells were incubated with either antibody 203E1H5, see FIG. 4b or with antibody 234H11E8, see FIG. 4c, mouse anti-human alpha-11 IgG antibodies according to the present invention and then incubated with conjugated goat-anti mouse IgG, Alexa Fluor® 647 and analysed using a FACS Accuri measuring the dye accordingly.

The target of assay [2] is T2, chimeric human integrin alpha-2 carrying the alpha-11 I-domain, mCherry fusion, on C2C12 cells (human, UniProt P17301 30-168; Q9UKX5 161-355; P17301 367-1181).
T2 construct: also called chimeric alpha-11Ialpha2mCherry; not shown: mCherry tag
T2 sequence (looked up): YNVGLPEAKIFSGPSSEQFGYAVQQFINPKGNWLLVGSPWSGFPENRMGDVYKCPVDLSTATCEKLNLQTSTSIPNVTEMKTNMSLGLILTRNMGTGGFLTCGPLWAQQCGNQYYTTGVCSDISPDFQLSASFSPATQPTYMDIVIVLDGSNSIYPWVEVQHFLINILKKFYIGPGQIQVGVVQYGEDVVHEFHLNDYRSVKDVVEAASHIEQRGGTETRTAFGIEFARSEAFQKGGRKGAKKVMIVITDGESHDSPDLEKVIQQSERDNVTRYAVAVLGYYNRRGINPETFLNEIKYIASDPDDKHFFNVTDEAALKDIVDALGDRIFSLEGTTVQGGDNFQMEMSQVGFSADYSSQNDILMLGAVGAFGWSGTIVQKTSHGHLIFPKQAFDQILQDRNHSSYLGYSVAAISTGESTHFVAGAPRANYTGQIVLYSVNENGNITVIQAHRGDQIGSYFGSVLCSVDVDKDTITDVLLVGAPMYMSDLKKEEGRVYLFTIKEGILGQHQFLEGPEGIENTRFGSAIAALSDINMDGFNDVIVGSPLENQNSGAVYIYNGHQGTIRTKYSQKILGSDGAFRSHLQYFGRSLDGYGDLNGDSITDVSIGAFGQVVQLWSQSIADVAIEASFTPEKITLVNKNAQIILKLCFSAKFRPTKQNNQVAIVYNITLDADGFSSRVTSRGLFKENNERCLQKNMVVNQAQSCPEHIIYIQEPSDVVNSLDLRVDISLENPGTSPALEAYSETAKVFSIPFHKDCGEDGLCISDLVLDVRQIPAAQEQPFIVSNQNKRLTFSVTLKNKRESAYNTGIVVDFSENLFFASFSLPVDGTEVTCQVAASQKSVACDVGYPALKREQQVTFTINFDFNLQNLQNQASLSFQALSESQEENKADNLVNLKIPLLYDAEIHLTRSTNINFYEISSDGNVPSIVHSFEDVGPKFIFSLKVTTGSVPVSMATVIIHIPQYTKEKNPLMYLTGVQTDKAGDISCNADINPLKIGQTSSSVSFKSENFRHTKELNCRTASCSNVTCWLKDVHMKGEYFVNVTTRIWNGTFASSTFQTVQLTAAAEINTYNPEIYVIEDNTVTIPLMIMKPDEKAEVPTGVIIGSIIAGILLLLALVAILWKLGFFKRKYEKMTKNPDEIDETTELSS
How it is done: as §1

The target in assay [3] is T3, human integrin α11-EGFP expressed on C2C12 mouse myoblast cells (human, UniProt Q9UKX5 23-1188).
T3 construct: whole, on cells; Alpha chain fused to EGFP, expressed in mouse C2C12 cells, which express no human integrins; the beta-1 partner chain on these cells is not described; In the Western blot the cell lysate was used; also called C2C12-α11 EGFP; C2C12-hu α11-EGFP; not shown: EGFP tag
T3 sequence (looked up): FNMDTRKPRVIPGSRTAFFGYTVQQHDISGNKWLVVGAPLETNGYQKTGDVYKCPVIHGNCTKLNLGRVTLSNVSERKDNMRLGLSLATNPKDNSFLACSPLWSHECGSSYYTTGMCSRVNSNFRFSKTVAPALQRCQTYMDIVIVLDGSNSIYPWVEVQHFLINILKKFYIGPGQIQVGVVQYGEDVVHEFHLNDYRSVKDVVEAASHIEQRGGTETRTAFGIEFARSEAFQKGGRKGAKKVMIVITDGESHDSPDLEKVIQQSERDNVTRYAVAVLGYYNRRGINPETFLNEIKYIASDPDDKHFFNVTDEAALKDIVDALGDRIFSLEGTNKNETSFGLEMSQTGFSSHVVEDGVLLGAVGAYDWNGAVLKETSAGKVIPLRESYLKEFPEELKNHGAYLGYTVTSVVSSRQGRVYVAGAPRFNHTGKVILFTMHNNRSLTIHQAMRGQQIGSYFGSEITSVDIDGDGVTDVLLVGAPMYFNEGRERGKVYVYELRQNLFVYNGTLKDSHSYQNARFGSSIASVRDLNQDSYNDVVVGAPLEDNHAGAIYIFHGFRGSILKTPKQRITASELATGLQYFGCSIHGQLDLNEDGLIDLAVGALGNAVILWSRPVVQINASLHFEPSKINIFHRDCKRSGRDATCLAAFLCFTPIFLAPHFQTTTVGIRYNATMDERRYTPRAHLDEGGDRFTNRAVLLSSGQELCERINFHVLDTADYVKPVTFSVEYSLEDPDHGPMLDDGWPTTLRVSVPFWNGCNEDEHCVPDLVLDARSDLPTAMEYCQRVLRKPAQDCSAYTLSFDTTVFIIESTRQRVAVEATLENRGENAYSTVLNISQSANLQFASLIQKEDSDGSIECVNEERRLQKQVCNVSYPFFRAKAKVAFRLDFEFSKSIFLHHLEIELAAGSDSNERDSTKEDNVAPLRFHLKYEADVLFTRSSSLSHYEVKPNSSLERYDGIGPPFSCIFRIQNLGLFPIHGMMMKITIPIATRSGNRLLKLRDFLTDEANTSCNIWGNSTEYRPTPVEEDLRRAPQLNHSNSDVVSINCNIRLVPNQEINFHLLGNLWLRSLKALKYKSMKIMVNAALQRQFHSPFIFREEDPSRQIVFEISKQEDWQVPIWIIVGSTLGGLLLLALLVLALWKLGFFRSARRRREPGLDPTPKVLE
As to the method: as §1

B1: monoclonal mouse antibody 203 E1H5 produced by the hybridoma deposited as DSM ACC3318 (antibody, V domains shown)
VH: QVQLKESGPGLVAPSQSLSITCTVSGFSLTNYAVHWVRQSPGKGLEWLGVIWSYGSTDYNAAFISKLSISKDNSKSQVFFTMSSLQADDTAIYYCARSQIYGGFYDFFDFWGQGTTLTVSS
VL: CDIQMTQTPSSLSASLGDRVTIICRASQDISNFLNWFQQKPDGTIKLLIYYSSRLHSGVPSRFSGSGSGTDYSLTISNLEQEDLATYFCQQGNTLPLTFGAGTKLELT
notes: Mouse anti-human alpha-11 IgG from a hybridoma (NT-HRM mice); used as hybridoma supernatant or mAb; also called 203E1H5 mAb; α11 203E1H5 mAb
In the case of B1, the binding result in assay [1] and in assay [2] was “no binding” each time.

B2: monoclonal mouse antibody 234 H11E8 produced by the hybridoma deposited as DSM ACC3319 (antibody, V domains shown)
VH: QVQLKESGPGLVAPSQSLSITCTVSGFSLTNSAVHWVRQSPGKGLEWLGVVWSYGSTDYNAAFISRLSITKDNSKSQVFFKMNSLQADDTAIYYCARSQIYADYYDYFDYWGQGTTLTVSS
VL: DIQMTQSTSSLSASLGDRVTISCRASQDISNFLNWSQQKPDGTVKLLIYYTSRLHSGVPSRFSGSGSGTDYSLTISNLEQEDIGTYFCQQGNTLPLTFGAGTKLELR
notes: Mouse anti-human alpha-11 IgG from a hybridoma (NT-HRM mice); used as hybridoma supernatant or mAb; constant regions are not; also called 234H11E8 mAb; α11 234H11E8 mAb
On to B2, for which the binding result in assay [3] is given as “binds”; in assay [1], “no binding”; in assay [2], “no binding”.
